From US20180140716A1

How the values were obtained:
[1] = molecular target: CD33 on HL-60 cells (UniProt P20138); experiment: cell-based or functional assay
[2] = molecular target: 5T4 antigen on cells (human (human cancer cell lines)) (UniProt Q13641); experiment: flow cytometry (MFI) on 5T4 expressing cells, anti-Fc FITC detection
Sequence of UniProt Q13641 (Q13641 32-420): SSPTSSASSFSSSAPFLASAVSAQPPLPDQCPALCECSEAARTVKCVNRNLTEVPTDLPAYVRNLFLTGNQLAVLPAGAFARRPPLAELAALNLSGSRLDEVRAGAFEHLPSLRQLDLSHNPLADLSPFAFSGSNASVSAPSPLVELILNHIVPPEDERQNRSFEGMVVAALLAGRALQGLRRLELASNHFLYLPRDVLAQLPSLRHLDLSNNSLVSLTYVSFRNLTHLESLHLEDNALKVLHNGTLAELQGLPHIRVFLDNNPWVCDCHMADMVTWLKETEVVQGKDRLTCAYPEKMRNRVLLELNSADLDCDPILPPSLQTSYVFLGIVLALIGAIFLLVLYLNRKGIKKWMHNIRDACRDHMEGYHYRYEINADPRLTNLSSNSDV

Sequence of UniProt P20138 (P20138 18-364 limits assumed): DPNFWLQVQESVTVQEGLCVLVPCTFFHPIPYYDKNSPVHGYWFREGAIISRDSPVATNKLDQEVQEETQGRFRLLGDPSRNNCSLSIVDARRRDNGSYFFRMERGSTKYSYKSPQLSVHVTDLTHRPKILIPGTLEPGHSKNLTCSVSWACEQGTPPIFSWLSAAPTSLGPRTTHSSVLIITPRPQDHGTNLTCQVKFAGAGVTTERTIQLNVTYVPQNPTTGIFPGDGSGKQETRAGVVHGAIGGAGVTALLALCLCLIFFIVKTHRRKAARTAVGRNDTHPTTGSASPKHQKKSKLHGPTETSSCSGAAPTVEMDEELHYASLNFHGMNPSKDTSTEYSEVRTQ

Row | Substance | IC50, antiproliferation (Cell Titer-Glo), HL-60 cells [1] | fold less binding than the anti-5T4 scFvFc proteins [2]
1 | Lintuzumab-((EG2-MI (2%)-(10 kDa PHF-BA (30%)-(AF-HPA-Ala (9%)), AF-HPA:lintuzumab about 10:1 to about 15:1 (antibody) | 0.77 nM | 
2 | non-binding scFvFc fusion protein |  | 200 fold less
